# Reference: patent US20030229005A1
# Key:
# Experiment in all cases: cell-based or functional assay
# [1] = target: human Gelatinase-A (human) (UniProt P08253)
# [2] = target: human Collagenase-3 (human) (UniProt P45452)
# [3] = target: gelatinase B (UniProt P14780)
# gelatinase B, sequence (P14780 107-707 limits assumed): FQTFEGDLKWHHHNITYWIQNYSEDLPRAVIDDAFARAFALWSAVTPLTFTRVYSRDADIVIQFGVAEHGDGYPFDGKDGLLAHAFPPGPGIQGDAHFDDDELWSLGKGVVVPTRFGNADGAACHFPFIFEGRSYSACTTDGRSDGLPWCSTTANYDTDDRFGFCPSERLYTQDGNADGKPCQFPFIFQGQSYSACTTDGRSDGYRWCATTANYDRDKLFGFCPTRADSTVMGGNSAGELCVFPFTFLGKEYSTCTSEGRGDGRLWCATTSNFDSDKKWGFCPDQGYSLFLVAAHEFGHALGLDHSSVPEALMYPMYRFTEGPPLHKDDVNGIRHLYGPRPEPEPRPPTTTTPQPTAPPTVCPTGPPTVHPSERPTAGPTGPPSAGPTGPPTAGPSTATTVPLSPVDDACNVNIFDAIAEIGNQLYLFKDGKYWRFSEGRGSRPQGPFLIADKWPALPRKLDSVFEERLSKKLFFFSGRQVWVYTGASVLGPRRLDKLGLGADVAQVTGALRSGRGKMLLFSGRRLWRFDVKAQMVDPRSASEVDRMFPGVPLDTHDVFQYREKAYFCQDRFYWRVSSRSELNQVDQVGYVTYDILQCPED
# human Gelatinase-A (human), sequence (P08253 110-660 limits assumed): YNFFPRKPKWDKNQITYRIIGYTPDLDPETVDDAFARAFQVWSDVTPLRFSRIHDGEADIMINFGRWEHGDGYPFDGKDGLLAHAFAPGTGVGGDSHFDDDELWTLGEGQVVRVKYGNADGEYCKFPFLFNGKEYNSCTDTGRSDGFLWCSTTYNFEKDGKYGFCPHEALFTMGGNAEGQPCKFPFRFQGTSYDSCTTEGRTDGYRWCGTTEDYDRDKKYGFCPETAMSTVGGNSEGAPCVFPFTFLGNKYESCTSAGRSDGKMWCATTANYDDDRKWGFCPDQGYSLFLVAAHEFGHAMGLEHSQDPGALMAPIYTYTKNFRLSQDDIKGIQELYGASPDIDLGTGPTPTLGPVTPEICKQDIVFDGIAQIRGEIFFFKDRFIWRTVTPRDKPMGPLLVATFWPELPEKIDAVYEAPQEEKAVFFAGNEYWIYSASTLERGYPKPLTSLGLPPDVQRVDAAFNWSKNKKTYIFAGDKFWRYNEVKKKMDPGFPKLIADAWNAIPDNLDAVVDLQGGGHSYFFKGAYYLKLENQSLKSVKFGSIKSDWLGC
substance,measurement,setting,value
bovine type II collagen (from UniProt P02459 182-1241),"Average Percent Inhibition from 1.1 to 6.6 Hours, Type II Collagen 0.18 ug/ml",[1],2%
same,"Average Percent Inhibition from 1.1 to 6.6 Hours, Type II Collagen 0.54 ug/ml",[1],6%
same,"Average Percent Inhibition from 1.1 to 6.6 Hours, Type II Collagen 1.63 ug/ml",[1],-52%
same,"Average Percent Inhibition from 1.1 to 6.6 Hours, Type II Collagen 4.89 ug/ml",[1],32%
same,"Average Percent Inhibition from 1.1 to 6.6 Hours, Type II Collagen 14.67 ug/ml",[1],56%
same,"Average Percent Inhibition from 1.1 to 6.6 Hours, Type II Collagen 44.00 ug/ml",[1],83%
same,"Average Percent Inhibition, 0.10-1.10 h, TypeIICOL 1.6 ug/ul",[1],-27%
same,"Average Percent Inhibition, 0.10-1.10 h, TypeIICOL 4.9 ug/ul",[1],37%
same,"Average Percent Inhibition, 0.10-1.10 h, TypeIICOL 15 ug/ul",[1],56%
same,"Average Percent Inhibition, 0.10-1.10 h, TypeIICOL 44 ug/ul",[1],58%
same,"Average Percent Inhibition, 0.10-1.10 h, TypeIICOL .18 ug/ul",[1],3%
same,"Average Percent Inhibition, 0.10-1.10 h, TypeIICOL .55 ug/ul",[1],2%
same,"Average Percent Inhibition, 1.10-2.10 h, TypeIICOL 1.6 ug/ul",[1],4%
same,"Average Percent Inhibition, 1.10-2.10 h, TypeIICOL 4.9 ug/ul",[1],43%
same,"Average Percent Inhibition, 1.10-2.10 h, TypeIICOL 15 ug/ul",[1],64%
same,"Average Percent Inhibition, 1.10-2.10 h, TypeIICOL 44 ug/ul",[1],78%
same,"Average Percent Inhibition, 1.10-2.10 h, TypeIICOL .18 ug/ul",[1],9%
same,"Average Percent Inhibition, 1.10-2.10 h, TypeIICOL .55 ug/ul",[1],11%
same,"Average Percent Inhibition, 2.10-3.10 h, TypeIICOL 1.6 ug/ul",[1],-11%
same,"Average Percent Inhibition, 2.10-3.10 h, TypeIICOL 4.9 ug/ul",[1],46%
same,"Average Percent Inhibition, 2.10-3.10 h, TypeIICOL 15 ug/ul",[1],70%
same,"Average Percent Inhibition, 2.10-3.10 h, TypeIICOL 44 ug/ul",[1],86%
same,"Average Percent Inhibition, 2.10-3.10 h, TypeIICOL .18 ug/ul",[1],7%
same,"Average Percent Inhibition, 2.10-3.10 h, TypeIICOL .55 ug/ul",[1],12%
same,"Average Percent Inhibition, 3.10-4.10 h, TypeIICOL 1.6 ug/ul",[1],-37%
same,"Average Percent Inhibition, 3.10-4.10 h, TypeIICOL 4.9 ug/ul",[1],37%
same,"Average Percent Inhibition, 3.10-4.10 h, TypeIICOL 15 ug/ul",[1],64%
same,"Average Percent Inhibition, 3.10-4.10 h, TypeIICOL 44 ug/ul",[1],87%
same,"Average Percent Inhibition, 3.10-4.10 h, TypeIICOL .18 ug/ul",[1],3%
same,"Average Percent Inhibition, 3.10-4.10 h, TypeIICOL .55 ug/ul",[1],8%
same,"Average Percent Inhibition, 4.10-5.10 h, TypeIICOL 1.6 ug/ul",[1],-68%
same,"Average Percent Inhibition, 4.10-5.10 h, TypeIICOL 4.9 ug/ul",[1],27%
same,"Average Percent Inhibition, 4.10-5.10 h, TypeIICOL 15 ug/ul",[1],53%
same,"Average Percent Inhibition, 4.10-5.10 h, TypeIICOL 44 ug/ul",[1],85%
same,"Average Percent Inhibition, 4.10-5.10 h, TypeIICOL .18 ug/ul",[1],0%
same,"Average Percent Inhibition, 4.10-5.10 h, TypeIICOL .55 ug/ul",[1],4%
same,"Average Percent Inhibition, 5.10-6.10 h, TypeIICOL 1.6 ug/ul",[1],-104%
same,"Average Percent Inhibition, 5.10-6.10 h, TypeIICOL 4.9 ug/ul",[1],19%
same,"Average Percent Inhibition, 5.10-6.10 h, TypeIICOL 15 ug/ul",[1],41%
same,"Average Percent Inhibition, 5.10-6.10 h, TypeIICOL 44 ug/ul",[1],82%
same,"Average Percent Inhibition, 5.10-6.10 h, TypeIICOL .18 ug/ul",[1],-3%
same,"Average Percent Inhibition, 5.10-6.10 h, TypeIICOL .55 ug/ul",[1],-1%
same,"Average Percent Inhibition from 1.1 to 6.6 Hours, Type II Collagen 0.18 ug/ml",[2],-8%
same,"Average Percent Inhibition from 1.1 to 6.6 Hours, Type II Collagen 0.54 ug/ml",[2],-11%
same,"Average Percent Inhibition from 1.1 to 6.6 Hours, Type II Collagen 1.63 ug/ml",[2],-11%
same,"Average Percent Inhibition from 1.1 to 6.6 Hours, Type II Collagen 4.89 ug/ml",[2],-28%
same,"Average Percent Inhibition from 1.1 to 6.6 Hours, Type II Collagen 14.67 ug/ml",[2],-44%
same,"Average Percent Inhibition from 1.1 to 6.6 Hours, Type II Collagen 44.00 ug/ml",[2],-53%
same,"Average Percent Inhibition, 0.10-1.10 h, TypeIICOL 1.6 ug/ul",[2],16%
same,"Average Percent Inhibition, 0.10-1.10 h, TypeIICOL 4.9 ug/ul",[2],8%
same,"Average Percent Inhibition, 0.10-1.10 h, TypeIICOL 15 ug/ul",[2],6%
same,"Average Percent Inhibition, 0.10-1.10 h, TypeIICOL 44 ug/ul",[2],2%
same,"Average Percent Inhibition, 0.10-1.10 h, TypeIICOL .18 ug/ul",[2],6%
same,"Average Percent Inhibition, 0.10-1.10 h, TypeIICOL .55 ug/ul",[2],14%
same,"Average Percent Inhibition, 1.10-2.10 h, TypeIICOL 1.6 ug/ul",[2],-4%
same,"Average Percent Inhibition, 1.10-2.10 h, TypeIICOL 4.9 ug/ul",[2],-31%
same,"Average Percent Inhibition, 1.10-2.10 h, TypeIICOL 15 ug/ul",[2],-48%
same,"Average Percent Inhibition, 1.10-2.10 h, TypeIICOL 44 ug/ul",[2],-55%
same,"Average Percent Inhibition, 1.10-2.10 h, TypeIICOL .18 ug/ul",[2],-9%
same,"Average Percent Inhibition, 1.10-2.10 h, TypeIICOL .55 ug/ul",[2],-11%
same,"Average Percent Inhibition, 2.10-3.10 h, TypeIICOL 1.6 ug/ul",[2],-15%
same,"Average Percent Inhibition, 2.10-3.10 h, TypeIICOL 4.9 ug/ul",[2],-38%
same,"Average Percent Inhibition, 2.10-3.10 h, TypeIICOL 15 ug/ul",[2],-59%
same,"Average Percent Inhibition, 2.10-3.10 h, TypeIICOL 44 ug/ul",[2],-71%
same,"Average Percent Inhibition, 2.10-3.10 h, TypeIICOL .18 ug/ul",[2],-10%
same,"Average Percent Inhibition, 2.10-3.10 h, TypeIICOL .55 ug/ul",[2],-15%
same,"Average Percent Inhibition, 3.10-4.10 h, TypeIICOL 1.6 ug/ul",[2],-13%
same,"Average Percent Inhibition, 3.10-4.10 h, TypeIICOL 4.9 ug/ul",[2],-31%
same,"Average Percent Inhibition, 3.10-4.10 h, TypeIICOL 15 ug/ul",[2],-50%
same,"Average Percent Inhibition, 3.10-4.10 h, TypeIICOL 44 ug/ul",[2],-60%
same,"Average Percent Inhibition, 3.10-4.10 h, TypeIICOL .18 ug/ul",[2],-8%
same,"Average Percent Inhibition, 3.10-4.10 h, TypeIICOL .55 ug/ul",[2],-12%
same,"Average Percent Inhibition, 4.10-5.10 h, TypeIICOL 1.6 ug/ul",[2],-12%
same,"Average Percent Inhibition, 4.10-5.10 h, TypeIICOL 4.9 ug/ul",[2],-25%
same,"Average Percent Inhibition, 4.10-5.10 h, TypeIICOL 15 ug/ul",[2],-41%
same,"Average Percent Inhibition, 4.10-5.10 h, TypeIICOL 44 ug/ul",[2],-49%
same,"Average Percent Inhibition, 4.10-5.10 h, TypeIICOL .18 ug/ul",[2],-7%
same,"Average Percent Inhibition, 4.10-5.10 h, TypeIICOL .55 ug/ul",[2],-10%
same,"Average Percent Inhibition, 5.10-6.10 h, TypeIICOL 1.6 ug/ul",[2],-11%
same,"Average Percent Inhibition, 5.10-6.10 h, TypeIICOL 4.9 ug/ul",[2],-21%
same,"Average Percent Inhibition, 5.10-6.10 h, TypeIICOL 15 ug/ul",[2],-34%
same,"Average Percent Inhibition, 5.10-6.10 h, TypeIICOL 44 ug/ul",[2],-41%
same,"Average Percent Inhibition, 5.10-6.10 h, TypeIICOL .18 ug/ul",[2],-6%
same,"Average Percent Inhibition, 5.10-6.10 h, TypeIICOL .55 ug/ul",[2],-10%
same,"Average Percent Inhibition from 1.1 to 6.6 Hours, Type II Collagen 0.18 ug/ml",[3],9%
same,"Average Percent Inhibition from 1.1 to 6.6 Hours, Type II Collagen 0.54 ug/ml",[3],9%
same,"Average Percent Inhibition from 1.1 to 6.6 Hours, Type II Collagen 1.63 ug/ml",[3],12%
same,"Average Percent Inhibition from 1.1 to 6.6 Hours, Type II Collagen 4.89 ug/ml",[3],38%
same,"Average Percent Inhibition from 1.1 to 6.6 Hours, Type II Collagen 14.67 ug/ml",[3],65%
same,"Average Percent Inhibition from 1.1 to 6.6 Hours, Type II Collagen 44.00 ug/ml",[3],84%
same,"Average Percent Inhibition, 0.10-1.10 h, TypeIICOL 1.6 ug/ul",[3],-28%
same,"Average Percent Inhibition, 0.10-1.10 h, TypeIICOL 4.9 ug/ul",[3],35%
same,"Average Percent Inhibition, 0.10-1.10 h, TypeIICOL 15 ug/ul",[3],57%
same,"Average Percent Inhibition, 0.10-1.10 h, TypeIICOL 44 ug/ul",[3],41%
same,"Average Percent Inhibition, 0.10-1.10 h, TypeIICOL .18 ug/ul",[3],3%
same,"Average Percent Inhibition, 0.10-1.10 h, TypeIICOL .55 ug/ul",[3],3%
same,"Average Percent Inhibition, 1.10-2.10 h, TypeIICOL 1.6 ug/ul",[3],14%
same,"Average Percent Inhibition, 1.10-2.10 h, TypeIICOL 4.9 ug/ul",[3],43%
same,"Average Percent Inhibition, 1.10-2.10 h, TypeIICOL 15 ug/ul",[3],67%
same,"Average Percent Inhibition, 1.10-2.10 h, TypeIICOL 44 ug/ul",[3],82%
same,"Average Percent Inhibition, 1.10-2.10 h, TypeIICOL .18 ug/ul",[3],12%
same,"Average Percent Inhibition, 1.10-2.10 h, TypeIICOL .55 ug/ul",[3],10%
same,"Average Percent Inhibition, 2.10-3.10 h, TypeIICOL 1.6 ug/ul",[3],19%
same,"Average Percent Inhibition, 2.10-3.10 h, TypeIICOL 4.9 ug/ul",[3],47%
same,"Average Percent Inhibition, 2.10-3.10 h, TypeIICOL 15 ug/ul",[3],72%
